# Laboratory results published in the DeepSol protein solubility set.
# Experiment: soluble on expression in E. coli; label from the status in PepcDB or PDB records
row,Sequence,soluble on expression in E. coli
1,MGSDKIHHHHHHMPRPAPRVTNSPMNTSPTWGVVATVKAPEHEILRFAAWHLELGAHRLFLYLDDPDPAVFARLKAHPRIRVFACDDSYWQRRKLSRPVKHQARQTMNARHAYNRADVDWLAHIDVDEFIWSETPIAAVLSGLPDDTLCARMRPIEALAGGDALYKAFIPGGPARDGIVRRLYPTFGAFVKGGFMSHVAGKVFARTGMEKVDFRIHNIFRNKEMNPHQVELDMVDLCHRHGADWDHWIAAYRYRIAQGSYRPDLAPNVPREAGGLSMHELLSGIEEEQGEDGLRAFFDELNACAPEGRARLRAEGMLKHRPLDLDGAMQKQFPK,not soluble
2,MGSDKIHHHHHHMPSIRVVNLKKYFGKVKAVDGVSFEVKDGEFVALLGPSGCGKTTTLLMLAGIYKPTSGEIYFDDVLVNDIPPKYREVGMVFQNYALYPHMTVFENIAFPLRARRISKDEVEKRVVEIARKLLIDNLLDRKPTQLSGGQQQRVALARALVKQPKVLLFDEPLSNLDANLRMIMRAEIKHLQQELGITSVYVTHDQAEAMTMASRIAVFNQGKLVQYGTPDEVYDSPKNMFVASFIGNPPTNFLRDFSVSVENKQTILKRDDVIIKLPEPVDVKLKEVVVGIRPEHCRISRERVENSIPGVVYVVEPLGRDIIVNVKTEKGEIIKVFGDTGKAPQPGENVFLVPDLRKIHLFNPETEETIL,not soluble
3,MGSDKIHHHHHHMPTLDPLSLRLFVSVAEAGTIAAAAEREHIAAAAVSKRISEIEATLGVALLRRTNKGVAPTAAGERLVVLAHRALHELDDIAVQMRDYASGVSGLIRLAANVSSVVQFLPREIQAFAAQHPRIQIQLEEKASAGVVKAVADNAVDIGIFTSVPHGYEVQTFPYHRDFLTLVVPGGHTLAQKQAVAFADTLDFEYVGLPPDTAISQQLTRAAHAHARPVNLRIQVTSYDAQCLMIAAGLGLGVMPHAVAQQQAANLGLATVALTDAWAERELLIAVRSLEALPVACRMLVAHLRGA,not soluble
4,MGSDKIHHHHHHMPTPRPWLYLGTTHALCEDCLALIPAKVVAEDGCVWHLKRCPAHGPQRTMISSDYAYWREARDFIKPGDLPAHFHTQVDKGCPHDCGLCPDHEQHSCLALVEVTDSCGLDCPTCFAQSRPGRGHRSLAEVEAMLDAVVRSEGGSPDIVQISGGEPADHPQILEILRAAKARPIRHVMLNTNGVRLARDPDFATALAGLGPGFEVYLQWDSLEPEALSVLRGADLREVRKGALAALDRHGISTTLVCVMAKGVNDGEVGAIIDHALAVACVRGVSFQPLQDAGRSPGLGKDSRMLPSDIRRAIIEQSNGLFGPADLVPLPCNPESITIAYALRHGNRATAVTGLVPRDLLLSAVPNALTFDAVPGLKDSLMRLLSMSCAGEDTAVQMGKLLCCLPGIQAPASLTYDKVFRLSIVQFLDRYSFCLGQVKRACVHVAQPDGKMIPIDTFNLFHRSNNHD,not soluble
5,MGSDKIHHHHHHMPVTHLAGALCHPTDCTLRASNSQHIATRFNEHSSVSHTRDLDRVQVAERWSRIKECNYVPVKVANTRADLGESLVWDERSGVLYFVDISGGRINGLTPDGEVDCLYESAARIGALALTDRGNLIFTEDASVAIFDVPTRKVSQHSASVHPRSTYRFNDGACDPQGRFVTGLMDEALSDNTGALFRFDWQLSDQVIHDDMGLPTGLAWSHDGHTVYFVDSAARAIYRAEYLIEGRLGAVTLFAETPAELGRPDGLALDREGGLWVCQYHGSCLLRYDRHGYLTDQVLMPVPCPTSCCFGGPGMNTLYISTARYDMTPEDLHHYPDAGDLYAIRPETGGVARHSFKE,not soluble
6,MGSDKIHHHHHHMPYINVRGVEHYYEWVKQPSGDLVKPVMVFIHGWAGSARYWISTANALSDQFDCLLYDLRGFGRSQGKPTVAQASESVVGADSTQEKSQAIQELTYEIEEYAEDLVVLLDELKLQRVYVNAHSMGASVATMFFNRYPQRVERGILTCSGIFEYDEKAFAAFHKFGGYVVKFRPKWLGKIPLVDRMFMARFLHRPIPKSERKAFLEDFLVADYDTALGTIFTSVSKAQAEVMPQEFAKLQVPTLLVAGEYDQIIPAKMGRQAASLNDKVEFVLIPNTAHFPMLEDAPTYLRRVREFLQVATPELQTS,not soluble
7,MGSDKIHHHHHHMQALERDYGHGDEVASHCHAEDQLIYAASGVMRVSSEGGSWVIPGGHALWMPAGVSHAIRMKGVVCMRTLLLDAHIERCQVIVVSGLLRELILAASRVLNLRDGAHARALILYELAAARRIDAFVPTPQHARLRAWCERFLQDPAQDLTLEQCGAQLNMSARSVARLFQREVGMSYGQWRARARVMLSQQCLADGKPILNVALEHGYQSASAFTAMFKRILGHAPSDWQNGTAREY,not soluble
8,MGSDKIHHHHHHMQEYKACAAHTDILKKYGFKVEKGFANFETAYKASYKKQNGPRIAILAEYDALPKIGHGCGHNAYGVTSIAGGILIKELIQKLDLQGEILVIGTPAEETNGAKVDMAKLGIFNDIDVAMSVHPSGEAHIRSGKSHAMEALQFTFKGKTAHAAASPHEGINALDGVLNLFNSINALRQQILSSARIHGIISNGGEAANIIPDLAIANFYVRAETLEYLKELVKKVKNCAKGAALASDTELEITNYETSFANLVTNKKLMKLYEKNLRTLGVTDIRDKEGLGSTDMGDVSHCCPTIHPYFPLTTRHLVGHTIEFATATIQEEAYKGMKEACLAMALSCLDIFEKPEILKEIKEEFYQTFKK,not soluble
9,MGSDKIHHHHHHMQFCSSDEFASKTMIKWPWKVQESAHQTALPWQEALSIPLLTCLTEQEQSKLVTLAERFLQQKRLVPLQGFELDSLRSCRIALLFCLPVLELGLEWLDGFHEVLIYPAPFVVDDEWEDDIGLVHNQRIVQSGQSWQQGPIVLNWLDIQDSFDASGFNLIIHEVAHKLDTRNGDRASGVPFIPLREVAGWEHDLHAAMNNIQEEIELVGENAASIDAYAASDPAECFAVLSEYFFSAPELFAPRFPSLWQRFCQFYQQDPLQRLHHANDTDSFSATNVH,not soluble
10,MGSDKIHHHHHHMQGDKHRRRVPFASRAEAHARYGAILTEANRHGAQVVLATLAELGRLDLFFLLVVLLKRKDADNDWCFARCREVAASPDGHLDLWAREHYKSTIITFALTIQDILCTPDITVGIFSHSRPGAKAFLQQIKREFEENPVLRAAYPDVLWDNPRTDAPQWSLDGGIVVKRASNPKEATVEAWGLVDGQPIGKHFSLLVYDDVVTPESVTTPDQIRKTTDALAVSYNLGAHGGRRRFIGTRYHFSDTYKDILDRETAVPRIYPATVDGSVTGLPHFLSPEALAAKRRDMGPYIFGCQMLQNPKADDAAGFKAEWLRYWEPSRDLCERMNRYIIVDPAHSKKAAADYTVMWVVGFGADGYRYVIEGVRDRLNLAERTRELFRLVRAHRPLCVGYERYGLQADVEHIRGEQDRTGYHFDIVELGGAMPKADRIRRLVPLFEQGRIFLPGRMSYRDVEGRWRDLTGEFVQEEYLAFPVCGHDDMLDCLARQVDEALGAVFPDEDDYAASVGGMPNDPHAGALTSLGFDDYDPLGHMRASS,not soluble
11,MGSDKIHHHHHHMQNTDIVVIGSGIGGLSCAALLARYGFDVIVCESHSIAGGAAHGFERNGFKFDSGPSLYSGLSYSPSANPLRQVLDAIGSELPCVTYDTWGCCLPEGDFDTAVGAEQFCEVLMKFCGDDAVAEWQELQRVMEPFARAATSIPPAALRFDFGAARTVGPFVPSLTKNVANIIKLTGPFSRIMDGVVKDSFTRNWLNLLCFLLSGLPADGTSAAEVAFMFADWYRPDAILEYPIGGSSALVDSLVQGLERHGGKLMLGAHVEEVLVEGNRAVGVRLRDRSEIRAKLAVISNASVWDTLKLLPEKAIPKQYRSKRQATPECDSFMHLHLGIDAQGLQSNLRCHYIVVNNWELGVTAPQNVVVISIPSVLDPSLAPAGKHVIHVYTPGNEPYSFWQGMDRRSQEYAEQKRSRAEVMWQALERIIPDIRSRCEVTLVGTPLTHERYLRRHQGSYGPAIQAGSGMFPSPSTPLPGLMCCGDSTFPGIGLPAVAASGLIAANTLAPVNKHLAMLQDINCI,not soluble
12,MGSDKIHHHHHHMQPDLLVFGGDLISGPIPLETLDLIYDLKSKYRTASVLGNNDQDIIDSYENKKLSLSNKAQEQIKWVTRLLNEKQILDLKDMPININVGKYFFCHAIADDNRTIFTQKTRISNIKQLFLEVISPFIICGHTHLQFKLKIGSQQIINAGSVGMPFSDKKGAQWLWIENNNFQFRRTLFDEDIAIKNMKNSDFPFVNQFIEEYVKNTVKVRTGYKILRRLEENNRLRK,not soluble
13,MGSDKIHHHHHHMQPDVRHSPKEAFEFAANNGFTHVEILMDHPLYSLENLSFAEVIELKWSYDLDLLIHAPATSTNFISISNEMRKASYKEMSKVCYFAEKCGAEVVTFHIGWNPAFINNGNFYFNKSLFDRHNESVLLNEFLPFVKTCPVQLALENTIMIEDGLERALNEIMGKTTLGLTIDVGHYNIRENPFFLKNFDRVVNMHLHDNDGTADQHLALGRGTVDLSKFNLNRYTGFLTIETREEKSIIESRDYLMRVIV,not soluble
14,MGSDKIHHHHHHMQPMDAEVLRILRKNNKSQDWGKINKKLHPKIVKYVDGKPVYQFFDTLNDNSFEKNGQLISIRTQPVNSFVPYHVHNYVEMMVVLSGRCVIKTQSESITLIQDEIMIIGCKTIHKIKPINDETIVVEIALKRTAFSLRDLTFLTHSRDAQSVSSTVFFLLSNDDSYGAFNVFHTQHDVNVVNKVNNIIREYYRPDNYSNQVIKFKILELFIRLVRLASKGPILQTQKEDHKNNEVDALTLLLYIEKNYKTVTLKSMAKHFKFHPNYLSSILKRKTGYTFIKLVHLQRINVAAEYLSLTDISIESISLAVGYEDPSCFYKIFRNHMGCSPREYRQRQAA,not soluble
15,MGSDKIHHHHHHMQQGQMAYDRAITVFSPDGRLFQVEYAREAVKKGSTALGMKFANGVLLISDKKVRSRLIEQNSIEKIQLIDDYVAAVTSGLVADARVLVDFARISAQQEKVTYGSLVNIENLVKRVADQMQQYTQYGGVRPYGVSLIFAGIDQIGPRLFDCDPAGTINEYKATAIGSGKDAVVSFLEREYKENLPEKEAVTLGIKALKSSLEEGEELKAPEIASITVGNKYRIYDQEEVKKFL,not soluble
16,MGSDKIHHHHHHMQQKKTTKEEYQKCVNVVVEYINQHLGEDIDLKSLARISNFSPFYFHRIMKAFLGEPIGTFIVRTRTEAAARLLRYSDIPIADIAYRIGYSSPSSLSKVFRQFYGISPLEYRNNKNFVIMKPAIIRPDLELKSEIKSIPARNVIYIRLSGDYKLNDYGGTWGRLWQFIKEQKLPMGDFSPLCIYHDDPKVTPAEKLRTDVCMVMPVQVAPKGDVGFKTLPAGRYAIFLYKGTYDNLQAVYDTIYGKCLPEMECTLRDEPSAERYLNNPCETAPEELLTEIYIPVE,not soluble
17,MGSDKIHHHHHHMQSGYYSSTGGIVTQFHRLDMISNNLANANTTGFKRDDVVIGDFLRLYEQQKEPLPLEDQTREAAKFLNRAMDRVPSIVEEYTDRSIGGITPSENRFDFALQSENAYFMIETPEGIRYTRDGSFTLNSEGRLVTKEGFAVLPREFVQSRQYIDIPDGVVIEADRNGNLYSRTLNNDELGDIIPLGNIAIASFENPKYLEKTGKNLYEYPQERMGERNLATNSGALVQGYLEKSNVNAVWEMTGLIETNRLVDMYSKVMKTHMDDLNTEAITKLAVKA,not soluble
18,MGSDKIHHHHHHMQSIPHVDMRRYQNDFDAFTQDVGNGYEKYGFIALTQHGVDTALIERALDTCRELFALPEDVKKQYHRPGQGGARGYTPFGTEVAKDAKHVDLKEFWHVGREVEGEPAYPQLLPNVWPQELPKFKDDMLAIYAALDNLGNQVLEALSVYLGQPKDFFRNKVNNGNSILRPLHYPPIIDEDTPSVRAGAHEDINVLTLLVGSREPGLEVLAKDGTWVPVTIIEGAIICNVGDMLQRLTNHVLPSTTHRVVNPPAPFNEKSRYSIPFFLHFNPDVMITPLESCISDENPQRDEPITADDYLMQRLREIGLIKD,not soluble
